Test results as given in US20200384079A1, “Compositions of Fibroblast Growth Factor LIgands and Methods of Treating Patients Undergoing Ischemia-Reperfusion Therapy” (University of Cincinnati, priority 2017, published 2020).
Entries after “also recorded” stand apart in the source; their conditions may differ. Where two headings read alike, the source gives them in different places.

B1: FGF1^ΔHBS: FGF1 mutant carrying the K127D/K128Q/K133V triple mutation in its HS-binding region; reduced heparin-binding affinity (protein)
chain: MAEGEITTFTALTEKFNLPPGNYKKPKLLYCSNGGHFLRILPDGTVDGTRDRSDQHIQLQLSAESVGEVYIKSTETGQYLAMDTDGLLYGSQTPNEECLFLERLEENHYNTYISKKHAEKNWFVGLDQNGSCVRGPRTHYGQKAILFLPLPVSSD

Experiments:
[1] = ITC of FGF interaction with Sucrose Octasulfate (SOS); format: binding
From the text: FIGS. 1A-1D: Structure-guided design of the FGF1^ΔHBS construct. (FIG. 1A) Expanded view of the hydrogen bonding interactions (dashed lines) between the HS-binding site of FGF2 and heparin hexasaccharide as observed in the crystal structure. FGF2 is shown as a ribbon diagram with HS-interacting residues rendered in sticks. The three FGF2 residues namely, K128, R129 and K134 that make important hydrogen bonding with HS are boxed. The corresponding three residues in FGF1 are K127, K128 and K133 which were mutated to aspartic acid, glutamine and valine, respectively, to engineer the FGF1ΔHBS construct; (FIG. 1B) FGF1^ΔHBS elutes as a single symmetric peak at its predicted molecular weight from a Superdex 200 sizing column. Retention times of protein standards are given above the chromatogram. (FIG. 1C and FIG. 1D) Analysis of the interactions of wildtype FGF1 and FGF1^ΔHBS with SOS. Indicated solutions of SOS were injected into solutions of wildtype FGF1 or FGF1ΔHBS in the cell. […]
To test the impact of the mutations on HS-binding ability of FGF1, isothermal titration calorimetry (ITC) was used to compare the interactions of native FGF1 and FGF1^ΔHBS with Sucrose Octasulfate (SOS), a known surrogate for HS. […] Next, the cardioprotective potential of FGF1^ΔHBS mutant when administered immediately upon reperfusion was evaluated in an in vivo rat model of myocardial infarction. […]

[2] = test system: in vivo rat model of myocardial infarction
[3] = Blood clotting time (tail nick); format: in vivo, rat; details: for Clotting time: 15 mins post treatment, single agent; for blood clotting time post-treatment (in words): baseline vs 15 minutes after drug treatment; for effect on anticoagulant activity of heparin (in words): co-administered with unfractionated heparin
Description: In sets of experiments, blood clotting time was detected at baseline and 15 minutes after drug treatment. In brief, a nick 1-2 mm depth was made at 5 cm and 3 cm of the proximal tail for baseline and post-drug blood clotting time, respectively; the tail nick was blotted with 4×4 gauze every 15 seconds until bleeding totally stopped, and blood clotting time was recorded from the onset of bleeding until it stopped.
Heparan sulfate proteoglycans or heparin regulates the bioavailability of FGFs. In order to develop a “cardioprotective” FGF as a therapeutic against ischemic heart disease, it was necessary to elucidate the efficacy of these cardiac FGFs in the presence of heparin treatment. Therefore, native rhFGFs (FGF 1, 2, 4, or 5) or vehicle are infused intravenously (at dose indicated above) in conjunction with unfractionated (12 units/kg/hr, i.v.) or low molecular weight heparin (enoxaparin 1 mg·kg, s.c.) during the first 15 minutes of reperfusion (FIG. 12A), and post-ischemic recovery of cardiac function and the degree of myocardial infarction is assessed. […] Unfractionated or low molecular weight heparin is administered alone during early reperfusion to elucidate the cardioprotective effects of heparins against IR injury. Whether FGF administration alters heparin activity is evaluated. To assess this potential interaction, activated clotting time (ACT) is assessed in vehicle-treated or FGF-treated groups in the absence or presence of heparin co-administration. Baseline and 15 minute post-drug treatment ACT is determined. It has been established that a heparin response occurs within 1 minute after an intravenous dose in humans and that no more time is required to achieve a predicted ACT.

ERK1/2 = ERK1/2 activation (phosphorylation) in left ventricle, immunoblot; format: in vivo, rat; details: immediately post-treatment
Description: Hearts from rats treated with saline, native FGF1 or FGF1^ΔHBS in the presence or absence of heparin were collected immediately after administration and at 120 minutes post-treatment for evaluation of downstream signaling. One-half of each snap-frozen heart was powdered and homogenized in protein extraction buffer as previously described by our laboratory. For FGFR1, 150 μg of total protein were loaded onto a 8% SDS-PAGE gel, for ERK1/2 activation, 20 μg of whole cell protein homogenate was loaded onto a 15% SDS-PAGE gel, and for PKCα and PKCδ, […] of whole cell protein homogenate was loaded onto a 10% SDS-PAGE gel and then transferred to nitrocellulose membrane. 0.1% Ponceau S in 5% acetic acid was used to examine the transfer efficiency and loading equality as described previously 43. Membranes were blocked with 5% dry milk and then incubated with primary antibody against phospho-FGFR1 (Y-654, 1:500, Cell Signaling), phospho-ERK1/2 (1:1000, Cell Signaling) or phospho-PKCα (1:500, Santa Cruz) or phospho-PKCδ (1:500, Santa Cruz) followed by incubation with HRP-conjugated secondary goat anti-rabbit antibody (1:3000, Santa Cruz Biotechnology). Membranes were stripped and reprobed with antibodies against total FGFR1 (1:500, Cell Signaling), total ERK (1:1000, BD Transduction Labs) or total PKCα (1:500, Santa Cruz) or PKCδ (1:500, Santa Cruz). Bound antibodies were visualized by ECL system. Activation is indicated as a ratio of phosphorylated protein/total protein. β-actin (1:1000, Cell Signaling) was also used as a loading control.
Construction of his-tagged native and heparin-binding modified rhFGFs as well as their expression and purification is performed as previously described using his-tagged expression vectors and nickel-nitrilotriacetic acid resin columns. […] His-tagged FGFs are detected in solid organs by ELISA (FIG. 14) both for FGF and histidine (data not shown), and immunoprecipitation (IP) followed by immunoblot and in plasma by ELISA as described previously. His-tags are widely used because they are small and rarely interfere with function, activity, or structure of target proteins. […] There is no observed difference in total ERK or FGFR1 expression between the treatment groups.

[4] = rat; for exogenous FGF1 level targeted to the heart: 10 μg/kg i.v.; for tissue and plasma FGF distribution (in words): i.v.
[5] = rat, FGF given at reperfusion with heparin
[6] = rat, given at reperfusion, no heparin co-therapy

Molecule	Kd [1] [µM]	recovery of contractility (+dP/dt at 120 minutes post-reperfusion normalized to baseline) ([2]; rat, FGF1 10 μg/kg i.v. at reperfusion, no heparin) [%]	post-ischemic cardiac function (in words) [2, 5]	post-ischemic cardiac function (in words) [2, 6]	Clotting time [3]	blood clotting time post-treatment (in words) [3]	effect on anticoagulant activity of heparin (in words) [3]	ERK1/2 activation (phosphorylation) in left ventricle (in words) (ERK1/2; FGF with heparin)	ERK1/2 activation (phosphorylation) in left ventricle (in words) (ERK1/2; no FGF+heparin co-treatment)	exogenous FGF1 level targeted to the heart ([4]; no heparin) [µg/mL]	tissue and plasma FGF distribution (in words) ([4]; FGF with heparin co-administration)	tissue and plasma FGF distribution (in words) ([4]; no FGF+heparin co-treatment)	binding to SOS (in words) [1]	heart rate compared to the saline group (in words) ([2]; rat I/R study)	exogenous FGF1 level targeted to the heart ([4]; with heparin administration) [µg/mL]
FGF1: native recombinant human fibroblast growth factor 1	4	69	reduced the post-ischemic improvement of cardiac function	improved relaxation compared to saline treatment	15 mins post rhFGF1 treatment: 144 +/− 21 sec (n = 7)	no significant difference in blood clotting time	does not alter the desired anticoagulant activity of heparin; also recorded: did not alter heparin's anticoagulant properties	markedly reduced ERK1/2 activation stimulated by FGF1	significantly increased compared to saline or heparin only treatment	2282 ± 97	significantly decreased in kidney, spleen, heart, liver and plasma	distributed to kidney, spleen, heart, liver, and plasma, while less went to lung and skeletal muscle			
B1			improved post-ischemic cardiac function, even in the presence of heparin	significantly improved compared to the native FGF1 cohorts; also recorded: significantly improved post-ischemic cardiac function compared to native FGF1; also recorded: greater improvement in cardiac function compared to FGF1	15 mins post rhFGF^ΔHBS treatment: 169 +/− 10 sec (n = 10)	no significant difference in blood clotting time	did not alter heparin's anticoagulant properties		significantly increased compared to saline or heparin only treatment; also recorded: significantly higher level of phosphorylated ERK1/2	3073 ± 101		mainly went to the heart including atria, left ventricle, and right ventricle; also recorded: greater biodistribution of FGF1^ΔHBS to the left ventricle compared to native FGF1	negligible; also recorded: fails to bind SOS	no significant differences in heart rate	4336 ± 775
